Substrate in the series: CCCC(=O)Oc1ccc([N+](=O)[O-])cc1
The series is described as follows: purified protein. The class given is biochemical, Qipengyuania seohaensis. Particulars: standard assay: 50 mM CHES pH 10.0, 40 °C, 0.05-4.0 mM substrate.

Broadly, the Km is the substrate concentration at which the rate is half of its maximum.

B1: E69 (Qipengyuania seohaensis) (protein)
chain: MRDHGERFVVEAEERRTVSIERTNLGGVNIAWVSPSDKVPSSDGPLIFNLHDGGFALNDGDAALYTAVSFAELQQLDSVSVDYRLTPQHPYPAALEDAVAAYAVIKRKMPGRPIVVYGLSAGGGLGAAFLLKVKQLGLPMPEAAVLNSPWSDVSMNSDTLATLDCYDPLLGGSRPTLKPLANSYAAGADPQDPLVSPVYGDWEGVDVPVLLISGTRDVMLGDTVRLHRAMWRAGVPAELIVNEGMWHAFSVEPEFEAMIADSARFIRHISAKED
notes: expressed in E. coli BL21 (DE3) from pSMT3 as N-terminal His6-SUMO fusion, tag cleaved with ULP1 and removed; about 30 kDa on SDS-PAGE
For B1, the Km worked out at 2200 ± 300 µM.

These data come from PMC5702849, “A Novel Halotolerant Thermoalkaliphilic Esterase from Marine Bacterium Erythrobacter seohaensis SW-135” (Frontiers in Microbiology, 2017).
